In paper PMC7702303, “Biochemical and transcript level differences between the three human phosphofructokinases show optimisation of each isoform for specific metabolic niches” (Biochemical Journal, 2020):
Where “and” joins values, the source holds several entries; their conditions need not be identical. Equal values may be shown once.

Columns and labels:
[1] = substrate: O=C(CO)[C@@H](O)[C@H](O)[C@H](O)COP(=O)(O)O; experiment: ALDO-TIM-G3PDH enzyme-linked kinetic assay, PFK-M; format: biochemical, human; details: other: PFK-M; F6P titration, ATP 0.5 mM; n = 6; mean (SD); pH 7.4; 25.0 °C
Procedure: (§1) Recombinant human PFKs were expressed in PFK-deficient Saccharomyces cerevisiae and purified using the methods described previously, adapting earlier materials and protocols. Production of PFK intended for use in ATP titration experiments used 1 mM F6P as a tetramer stabilising agent in protein purification and storage buffers. Production of PFK intended for use in F6P titration experiments used 1 mM ATP as a tetramer stabilising agent in protein purification and storage buffers. Experimental details on the purification and characterisation procedures including figures showing SDS–PAGE gels of the highly pure PFKs used in the kinetic experiments described in this work have been recently published.
(§2) Assay buffer consisted of 50 mM TEA, 100 mM KCl, 10 mM MgCl2, 1 mM Tris(2-carboxyethyl)phosphine hydrochloride (TCEP), 10% glycerol, pH 7.4. Assay mix consisted of 5 units/ml glycerol-3-phosphate dehydrogenase (G3PDH, Sigma–Aldrich G6880), 2.5 units/ml aldolase (Sigma–Aldrich A2714), 25 units/ml triosephosphate isomerase (TIM, Sigma–Aldrich T6258), and 1.25 mM NADH. […] A SpectraMax M5 Multi-Mode Microplate Reader was used to measure A340nm at 13 s intervals for 10 min. […]
(§3) Time-dependent absorbance change was converted into rate of NADH oxidation (µM s^−1) or specific activity (µmol min^−1 mg protein^−1) using the Beer-Lambert law (molar extinction coefficient of NADH 6.22 mM^−1 cm^−1). […]

[2] = biological target: the molecule itself; experiment: SEC; size-exclusion chromatography of purified recombinant PFK isoforms, buffer and protein concentration not told in the main text (Supplementary Figure S2); tetramer to dimers
[3] = substrate: O=C(CO)[C@@H](O)[C@H](O)[C@H](O)COP(=O)(O)O; experiment: ALDO-TIM-G3PDH enzyme-linked kinetic assay, PFK-L; format: biochemical, human; details: other: PFK-L; F6P titration, ATP 0.5 mM; n = 6; mean (SD); pH 7.4; 25.0 °C
Procedure: as §1, §2, §3

[4] = substrate: O=C(CO)[C@@H](O)[C@H](O)[C@H](O)COP(=O)(O)O; experiment: ALDO-TIM-G3PDH enzyme-linked kinetic assay, PFK-P; format: biochemical, human; details: other: PFK-P; F6P titration, ATP 0.5 mM; n = 6; mean (SD); pH 7.4; 25.0 °C
Procedure: as §1, §2, §3

B1: human 6-phosphofructokinase-1-kinase, muscle isoform (PFK-M) (enzyme, UniProt P08237 1-780, looked up)
chain: MTHEEHHAAKTLGIGKAIAVLTSGGDAQGMNAAVRAVVRVGIFTGARVFFVHEGYQGLVDGGDHIKEATWESVSMMLQLGGTVIGSARCKDFREREGRLRAAYNLVKRGITNLCVIGGDGSLTGADTFRSEWSDLLSDLQKAGKITDEEATKSSYLNIVGLVGSIDNDFCGTDMTIGTDSALHRIMEIVDAITTTAQSHQRTFVLEVMGRHCGYLALVTSLSCGADWVFIPECPPDDDWEEHLCRRLSETRTRGSRLNIIIVAEGAIDKNGKPITSEDIKNLVVKRLGYDTRVTVLGHVQRGGTPSAFDRILGSRMGVEAVMALLEGTPDTPACVVSLSGNQAVRLPLMECVQVTKDVTKAMDEKKFDEALKLRGRSFMNNWEVYKLLAHVRPPVSKSGSHTVAVMNVGAPAAGMNAAVRSTVRIGLIQGNRVLVVHDGFEGLAKGQIEEAGWSYVGGWTGQGGSKLGTKRTLPKKSFEQISANITKFNIQGLVIIGGFEAYTGGLELMEGRKQFDELCIPFVVIPATVSNNVPGSDFSVGADTALNTICTTCDRIKQSAAGTKRRVFIIETMGGYCGYLATMAGLAAGADAAYIFEEPFTIRDLQANVEHLVQKMKTTVKRGLVLRNEKCNENYTTDFIFNLYSEEGKGIFDSRKNVLGHMQQGGSPTPFDRNFATKMGAKAMNWMSGKIKESYRNGRIFANTPDSGCVLGMRKRALVFQPVAELKDQTDFEHRIPKEQWWLKLRPILKILAKYEIDLDTSDHAHLEHITRKRSGEAAV
notes: human phosphofructokinase, muscle isoform (PFK-M), recombinant; Active form is a tetramer in equilibrium with dimers
kcat [1]: 8.11 s⁻¹
stoichiometry N [2]: 4

B2: human 6-phosphofructokinase-1-kinase, liver isoform (PFK-L) (enzyme, UniProt P17858 1-780, looked up)
chain: MAAVDLEKLRASGAGKAIGVLTSGGDAQGMNAAVRAVTRMGIYVGAKVFLIYEGYEGLVEGGENIKQANWLSVSNIIQLGGTIIGSARCKAFTTREGRRAAAYNLVQHGITNLCVIGGDGSLTGANIFRSEWGSLLEELVAEGKISETTARTYSHLNIAGLVGSIDNDFCGTDMTIGTDSALHRIMEVIDAITTTAQSHQRTFVLEVMGRHCGYLALVSALASGADWLFIPEAPPEDGWENFMCERLGETRSRGSRLNIIIIAEGAIDRNGKPISSSYVKDLVVQRLGFDTRVTVLGHVQRGGTPSAFDRILSSKMGMEAVMALLEATPDTPACVVTLSGNQSVRLPLMECVQMTKEVQKAMDDKRFDEATQLRGGSFENNWNIYKLLAHQKPPKEKSNFSLAILNVGAPAAGMNAAVRSAVRTGISHGHTVYVVHDGFEGLAKGQVQEVGWHDVAGWLGRGGSMLGTKRTLPKGQLESIVENIRIYGIHALLVVGGFEAYEGVLQLVEARGRYEELCIVMCVIPATISNNVPGTDFSLGSDTAVNAAMESCDRIKQSASGTKRRVFIVETMGGYCGYLATVTGIAVGADAAYVFEDPFNIHDLKVNVEHMTEKMKTDIQRGLVLRNEKCHDYYTTEFLYNLYSSEGKGVFDCRTNVLGHLQQGGAPTPFDRNYGTKLGVKAMLWLSEKLREVYRKGRVFANAPDSACVIGLKKKAVAFSPVTELKKDTDFEHRMPREQWWLSLRLMLKMLAQYRISMAAYVSGELEHVTRRTLSMDKGF
notes: human phosphofructokinase, liver isoform (PFK-L), recombinant; Active form is a tetramer in equilibrium with dimers
kcat [3]: 5.38 s⁻¹
binding result [2]: binds

B3: human 6-phosphofructokinase-1-kinase, platelet isoform (PFK-P) (enzyme, UniProt Q01813 1-784, looked up)
chain: MDADDSRAPKGSLRKFLEHLSGAGKAIGVLTSGGDAQGMNAAVRAVVRMGIYVGAKVYFIYEGYQGMVDGGSNIAEADWESVSSILQVGGTIIGSARCQAFRTREGRLKAACNLLQRGITNLCVIGGDGSLTGANLFRKEWSGLLEELARNGQIDKEAVQKYAYLNVVGMVGSIDNDFCGTDMTIGTDSALHRIIEVVDAIMTTAQSHQRTFVLEVMGRHCGYLALVSALACGADWVFLPESPPEEGWEEQMCVKLSENRARKKRLNIIIVAEGAIDTQNKPITSEKIKELVVTQLGYDTRVTILGHVQRGGTPSAFDRILASRMGVEAVIALLEATPDTPACVVSLNGNHAVRLPLMECVQMTQDVQKAMDERRFQDAVRLRGRSFAGNLNTYKRLAIKLPDDQIPKTNCNVAVINVGAPAAGMNAAVRSAVRVGIADGHRMLAIYDGFDGFAKGQIKEIGWTDVGGWTGQGGSILGTKRVLPGKYLEEIATQMRTHSINALLIIGGFEAYLGLLELSAAREKHEEFCVPMVMVPATVSNNVPGSDFSIGADTALNTITDTCDRIKQSASGTKRRVFIIETMGGYCGYLANMGGLAAGADAAYIFEEPFDIRDLQSNVEHLTEKMKTTIQRGLVLRNESCSENYTTDFIYQLYSEEGKGVFDCRKNVLGHMQQGGAPSPFDRNFGTKISARAMEWITAKLKEARGRGKKFTTDDSICVLGISKRNVIFQPVAELKKQTDFEHRIPKEQWWLKLRPLMKILAKYKASYDVSDSGQLEHVQPWSV
notes: human phosphofructokinase, platelet isoform (PFK-P), recombinant; Active form is a tetramer in equilibrium with dimers
kcat [4]: 1.83 s⁻¹
stoichiometry N [2]: 4 and 2
